Source: patent US20240124560A1 (Scripps Research, published 2024)

Tests used:
HIV-1 HxB2 Env [1] = target: T1, HIV-1 HxB2 Env (HIV-1 HxB2, UniProt P04578 33-856); assay: cell-based or functional assay
HIV-1 Du156.12 Env [2] = target: HIV-1 Du156.12 Env (HIV-1 Du156.12); assay: cell-based or functional assay
HIV-1 Du156.12 Env [3] = target: HIV-1 Du156.12 Env (HIV-1 Du156.12); assay: cell-based or functional assay; remark: listed apart in the source
HIV-2 C3 chimera Env = HIV-2 C3 chimera Env (HIV-2 (HIV-1 MPER) chimera); assay: cell-based or functional assay
HIV-2 C4 chimera Env = HIV-2 C4 chimera Env (HIV-2 (HIV-1 MPER) chimera); assay: cell-based or functional assay
[4] = target: HIV-2 Env (parental virus of the chimeras) (HIV-2); assay: cell-based or functional assay
HIV-2 C1 chimera Env = HIV-2 C1 chimera Env (HIV-2 (HIV-1 MPER) chimera); assay: cell-based or functional assay
HIV-1 HxB2 Env [5] = target: T1, HIV-1 HxB2 Env; assay: BN-PAGE mobility shift of HxB2 Env with Fab, relative shift
HIV-1 HxB2 Env [6] = target: T1, HIV-1 HxB2 Env; assay: cell-based or functional assay; remark: listed apart in the source
HIV-1 Du156.12 Env [7] = target: HIV-1 Du156.12 Env (HIV-1 Du156.12); assay: cell-based or functional assay; remark: listed apart in the source

B1: H4K3_SFS28EPE (antibody, V domains shown)
VH: KVQLVQSGAELKKPWSSVRVSCKASGGEPESYAFNWVRQAPGQRLEWLGGIVPLVSSTNYAQRFRGRVTISADRSTSTVYLEMTGLTSADTAVYFCAREGEGWFGRPLRAFEFWGQGTLVTVST
VL: EIVLTQSPGTFALSPGERATLSCRASQSVSGGALAWYQQKAGQAPRLLIYDTSGRATGVPGRFSGSGSETDFSLTISRLEPEDFAVYYCQQYGTSQSTFGQGTRLETR
- Fold Increase (neutralization IC50 over H4K3), HxB2 (HIV-1 HxB2 Env [1]): 16.4 fold
- IC50, neutralization of HxB2 pseudovirus (HIV-1 HxB2 Env [1]): 1.62 µg/mL
- Fold Increase (neutralization IC50 over H4K3), Du156.12 (HIV-1 Du156.12 Env [2]): 26.3 fold
- IC50, neutralization of Du156.12 pseudovirus (HIV-1 Du156.12 Env [2]): 2.89 µg/mL

B2: H4K3_RS73PE (antibody, V domains shown)
VH: KVQLVQSGAELKKPWSSVRVSCKASGGSFSSYAFNWVRQAPGQRLEWLGGIVPLVSSTNYAQRFRGRVTISADPETSTVYLEMTGLTSADTAVYFCAREGEGWFGRPLRAFEFWGQGTLVTVST
VL: EIVLTQSPGTFALSPGERATLSCRASQSVSGGALAWYQQKAGQAPRLLIYDTSGRATGVPGRFSGSGSETDFSLTISRLEPEDFAVYYCQQYGTSQSTFGQGTRLETR
- Fold Increase (neutralization IC50 over H4K3), HxB2 (HIV-1 HxB2 Env [1]): 3 fold
- IC50, neutralization of HxB2 pseudovirus (HIV-1 HxB2 Env [1]): 0.299 µg/mL
- Fold Increase (neutralization IC50 over H4K3), Du156.12 (HIV-1 Du156.12 Env [2]): 7.4 fold
- IC50, neutralization of Du156.12 pseudovirus (HIV-1 Du156.12 Env [2]): 0.814 µg/mL

B3: H4K3_5M (antibody, V domains shown)
VH: KVQLVQSGAELKKPWSSVRVSCKASGGEPESYAFNWVRQAPGQRLEWLGGIVPLVSSTNYAQRFRGRVTISADPETSTVYLEMTGLTSADTAVYFCAREGEGWFGRPLRAFEFWGQGTLVTVST
VL: EIVLTQSPGTFALSPGERATLSCRASQSVSGGALAWYQQKAGQAPRLLIYDTSGRATGVPGRFSGSGSETDFSLTISRLEPEDFAVYYCQQYGTSQSTFGQGTRLETR
- Fold Increase (neutralization IC50 over H4K3), HxB2 (HIV-1 HxB2 Env [1]): 37.7 fold
- IC50, neutralization of HxB2 pseudovirus (HIV-1 HxB2 Env [1]): 3.72 µg/mL
- Fold Increase (neutralization IC50 over H4K3), Du156.12 (HIV-1 Du156.12 Env [2]): 84.5 fold
- IC50, neutralization of Du156.12 pseudovirus (HIV-1 Du156.12 Env [2]): 9.31 µg/mL

B4: PGZL1.H4K3 (antibody, V domains shown)
VH: KVQLVQSGAELKKPWSSVRVSCKASGGSFSSYAFNWVRQAPGQRLEWLGGIVPLVSSTNYAQRFRGRVTISADRSTSTVYLEMTGLTSADTAVYFCAREGEGWFGRPLRAFEFWGQGTLVTVST
VL: EIVLTQSPGTFALSPGERATLSCRASQSVSGGALAWYQQKAGQAPRLLIYGTSGRATGVPGRFSGSGSETDFSLTISRLEPEDFAVYYCQQYGTSQSTFGQGTRLETR
- IC50 (µg/ml), neutralization of HIV-1 Du156.12 (HIV-1 Du156.12 Env [3]): 0.27 µg/mL
- IC50 (µg/ml), neutralization of chimeric virus (HIV-2 C3 chimera Env): > 10 µg/mL
- IC50 (µg/ml), neutralization of chimeric virus (HIV-2 C4 chimera Env): 1.17 µg/mL
- IC50 (µg/ml), neutralization of HIV-2 [4]: > 10 µg/mL
- IC50, neutralization of HxB2 pseudovirus (HIV-1 HxB2 Env [1]): 0.099 µg/mL
- IC50, neutralization of Du156.12 pseudovirus (HIV-1 Du156.12 Env [2]): 0.11 µg/mL

B5: PGZL1 (antibody, V domains shown)
VH: EVQLVQSGGEVKRPGSSVTVSCKATGGTFSTLAFNWVRQAPGQGPEWMGGIVPLFSIVNYGQKFQGRLTIRADKSTTTVFLDLSGLTSADTATYYCAREGEGWFGKPLRAFEFWGQGTVITVSS
VL: DVVMTQSPGTLSLSPGERATLSCRASQSVSGGALAWYQQKPGQAPRLLIYDTSSRPTGVPGRFSGSGSGTDFSLTISRLEPEDFAVYYCQQYGTSQSTFGQGTRLEIK
- IC50 (µg/ml), neutralization of HIV-1 Du156.12 (HIV-1 Du156.12 Env [3]): 0.623 µg/mL
- IC50 (µg/ml), neutralization of chimeric virus (HIV-2 C1 chimera Env): 0.98 µg/mL
- IC50 (µg/ml), neutralization of chimeric virus (HIV-2 C3 chimera Env): > 10 µg/mL
- IC50 (µg/ml), neutralization of chimeric virus (HIV-2 C4 chimera Env): 2.38 µg/mL
- IC50 (µg/ml), neutralization of HIV-2 [4]: > 10 µg/mL

B6: PGZL1 Fab (Fab, V domains shown)
VH: EVQLVQSGGEVKRPGSSVTVSCKATGGTFSTLAFNWVRQAPGQGPEWMGGIVPLFSIVNYGQKFQGRLTIRADKSTTTVFLDLSGLTSADTATYYCAREGEGWFGKPLRAFEFWGQGTVITVSS
VL: DVVMTQSPGTLSLSPGERATLSCRASQSVSGGALAWYQQKPGQAPRLLIYDTSSRPTGVPGRFSGSGSGTDFSLTISRLEPEDFAVYYCQQYGTSQSTFGQGTRLEIK
notes: also called Fab PGZL1
- binding result (HIV-1 HxB2 Env [5]): binds

B7: PGZL1_F100A (antibody, V domains shown)
VH: QVQLVQSGGEVKRPGSSVTVSCKATGGTFSTLAFNWVRQAPGQGPEWMGGIVPLFSIVNYGQKFQGRLTIRADKSTTTVFLDLSGLTSADTATYYCAREGEGWAGKPLRAFEFWGQGTVITVSS
VL: DVVMTQSPGTLSLSPGERATLSCRASQSVSGGALAWYQQKPGQAPRLLIYDTSSRPTGVPGRFSGSGSGTDFSLTISRLEPEDFAVYYCQQYGTSQSTFGQGTRLEIK
- decrease in neutralization against the parent antibody (HIV-1 HxB2 Env [6]): > 10 fold
- decrease in neutralization against the parent antibody (HIV-1 Du156.12 Env [7]): > 10 fold

B8: PGZL1_W99A (antibody, V domains shown)
VH: QVQLVQSGGEVKRPGSSVTVSCKATGGTFSTLAFNWVRQAPGQGPEWMGGIVPLFSIVNYGQKFQGRLTIRADKSTTTVFLDLSGLTSADTATYYCAREGEGAFGKPLRAFEFWGQGTVITVSS
VL: DVVMTQSPGTLSLSPGERATLSCRASQSVSGGALAWYQQKPGQAPRLLIYDTSSRPTGVPGRFSGSGSGTDFSLTISRLEPEDFAVYYCQQYGTSQSTFGQGTRLEIK
- decrease in neutralization against the parent antibody (HIV-1 HxB2 Env [6]): > 10 fold
- decrease in neutralization against the parent antibody (HIV-1 Du156.12 Env [7]): > 10 fold

B9: PGZL1_gVmDmJ F100A (antibody, V domains shown)
V domain 1: QVQLVQSGAEVKKPGSSVKVSCKASGGTFSSYAISWVRQAPGQGLEWMGGIIPIFGTANYAQKFQGRVTITADKSTSTAYMELSSLRSEDTAVYYCAREGEGWAGKPLRAFEFWGQGTVITVSS
V domain 2: not shown
- decrease in neutralization against the parent antibody (HIV-1 HxB2 Env [6]): > 10 fold
- decrease in neutralization against the parent antibody (HIV-1 Du156.12 Env [7]): > 10 fold

B10: PGZL1_gVmDmJ_W99A (antibody, V domains shown)
V domain 1: QVQLVQSGAEVKKPGSSVKVSCKASGGTFSSYAISWVRQAPGQGLEWMGGIIPIFGTANYAQKFQGRVTITADKSTSTAYMELSSLRSEDTAVYYCAREGEGAFGKPLRAFEFWGQGTVITVSS
V domain 2: not shown
- decrease in neutralization against the parent antibody (HIV-1 HxB2 Env [6]): > 10 fold
- decrease in neutralization against the parent antibody (HIV-1 Du156.12 Env [7]): > 10 fold

B11: PGZL1_gVgDgJ Fab (Fab, V domains shown)
VH: QVQLVQSGAEVKKPGSSVKVSCKASGGTFSSYAISWVRQAPGQGLEWMGGIIPIFGTANYAQKFQGRVTITADKSTSTAYMELSSLRSEDTAVYYCAREGEGWFGEPLRAFDVWGQGTVITVSS
VL: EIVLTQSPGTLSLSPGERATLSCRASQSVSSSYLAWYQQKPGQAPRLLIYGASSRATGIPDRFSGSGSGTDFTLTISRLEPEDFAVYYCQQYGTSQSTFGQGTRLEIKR
- binding result (HIV-1 HxB2 Env [5]): binds
